Legend:
GFP-BC2-tag [1] = target: T1, GFP-BC2-tag; test: SPR
T1 chain: PDRKAAVSHWQQ

GFP-BC2-tag [2] = target: T1, GFP-BC2-tag; test: SPR; 5 mM DTT (reduced)

B1: anti-BC2-tag VHH (BC2-Nb) (VHH)
VHH: QVQLVESGGGLVQPGGSLTLSCTASGFTLDHYDIGWFRQAPGKEREGVSCINNSDDDTYYADSVKGRFTIFMNNAKDTVYLQMNSLKPEDTAIYYCAEARGCKRGRYEYDFWGQGTQVTVSS
Kd (GFP-BC2-tag [1]): 9.28 nM
Kd (GFP-BC2-tag [2]): 55.2 nM

From paper PMC11432006 (2024)
